What is called Km is the concentration of substrate that gives half-maximal velocity. As a reminder, the stoichiometry N is a count of units in the complex or per binding partner.

Several values for one entry are separate records, joined by “and”; a condition that tells them apart may be missing. Identical values can stand only once.

The values below come from article PMC10810279, “Biophysical and structural characterization of a multifunctional viral genome packaging motor” (Nucleic Acids Research, 2023).

First the molecules themselves.
B2: bacteriophage λ terminase large subunit (TerL) (enzyme, UniProt P03708 1-641, looked up)
chain: MNISNSQVNRLRHFVRAGLRSLFRPEPQTAVEWADANYYLPKESAYQEGRWETLPFQRAIMNAMGSDYIREVNVVKSARVGYSKMLLGVYAYFIEHKQRNTLIWLPTDGDAENFMKTHVEPTIRDIPSLLALAPWYGKKHRDNTLTMKRFTNGRGFWCLGGKAAKNYREKSVDVAGYDELAAFDDDIEQEGSPTFLGDKRIEGSVWPKSIRGSTPKVRGTCQIERAASESPHFMRFHVACPHCGEEQYLKFGDKETPFGLKWTPDDPSSVFYLCEHNACVIRQQELDFTDARYICEKTGIWTRDGILWFSSSGEEIEPPDSVTFHIWTAYSPFTTWVQIVKDWMKTKGDTGKRKTFVNTTLGETWEAKIGERPDAEVMAERKEHYSAPVPDRVAYLTAGIDSQLDRYEMRVWGWGPGEESWLIDRQIIMGRHDDEQTLLRVDEAINKTYTRRNGAEMSISRICWDTGGIDPTIVYERSKKHGLFRVIPIKGASVYGKPVASMPRKRNKNGVYLTEIGTDTAKEQIYNRFTLTPEGDEPLPGAVHFPNNPDIFDLTEAQQLTAEEQVEKWVDGRKKILWDSKKRRNEALDCFVYALAALRISISRWQLDLSALLASLQEEDGAATNKKTLADYARALSGEDE
notes: large catalytic terminase subunit TerL of bacteriophage lambda; Never tested as an isolated subunit, only as part of the protomer or ring; also called large terminase

Series [1] addresses T1, lambda terminase holoenzyme ring (TerL•TerS2)5 (Escherichia phage Lambda, UniProt P03708).
T1 construct: gene A; assembled ring of five TerL•TerS2 protomers; with Terminase small subunit
T1 sequence (P03708 1-641): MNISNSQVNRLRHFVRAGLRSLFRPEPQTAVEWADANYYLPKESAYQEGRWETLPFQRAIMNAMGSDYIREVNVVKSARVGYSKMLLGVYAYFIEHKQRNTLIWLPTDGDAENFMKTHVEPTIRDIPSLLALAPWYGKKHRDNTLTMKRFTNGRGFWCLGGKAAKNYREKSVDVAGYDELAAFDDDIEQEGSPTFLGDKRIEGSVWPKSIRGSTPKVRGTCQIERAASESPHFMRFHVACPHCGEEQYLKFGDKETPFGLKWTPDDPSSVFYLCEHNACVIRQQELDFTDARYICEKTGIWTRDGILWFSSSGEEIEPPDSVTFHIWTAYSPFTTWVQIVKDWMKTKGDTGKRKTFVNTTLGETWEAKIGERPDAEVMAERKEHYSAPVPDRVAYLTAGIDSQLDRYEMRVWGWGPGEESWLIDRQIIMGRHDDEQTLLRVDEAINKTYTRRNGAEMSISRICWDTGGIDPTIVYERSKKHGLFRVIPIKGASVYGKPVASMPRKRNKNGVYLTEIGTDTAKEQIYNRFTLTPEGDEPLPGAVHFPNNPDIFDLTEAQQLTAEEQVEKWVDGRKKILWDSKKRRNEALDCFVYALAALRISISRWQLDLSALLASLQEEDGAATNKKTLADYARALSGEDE
T1 sequence (P03707 1-181 partner): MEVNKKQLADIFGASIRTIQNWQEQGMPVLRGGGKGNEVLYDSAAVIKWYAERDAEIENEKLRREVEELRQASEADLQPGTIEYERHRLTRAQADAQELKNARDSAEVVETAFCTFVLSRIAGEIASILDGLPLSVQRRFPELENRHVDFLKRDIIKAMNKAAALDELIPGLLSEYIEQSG
Nature of the series: ATPase assay, […] TLC, phosphorimaging. The format is biochemical. Conditions: labelled compound; 10 nM terminase; 50 mM Tris-HCl pH 9, 10 mM MgCl2, 60 mM NaCl, 2 mM spermidine, 37 °C.

Series [2] deals with bacteriophage λ terminase protomer (TerL•TerS2) (bacteriophage λ) (UniProt P03708). Nature of the series: cryo-EM 2D class averages; purified terminase ring at 0.5 mg/ml with 1 mM ATPγS; no 3D reconstruction.
For series [3] the target is unchanged. The series is described as follows: cryo-EM 2D class averages; purified terminase ring at 0.5 mg/ml, no ligand (apo); no 3D reconstruction.
For series [4] the target is unchanged. Nature of the series: native MS; charge detection mass spectrometry (CDMS) of the assembled ring, 300 mM ammonium acetate pH 8.34.
Series [5] shares this target. The series is described as follows: SAXS; assembled terminase ring at 0.25, 0.50 and 0.80 mg/ml, 5°C; mass from the Porod-invariant volume; protomers to ring.
In series [6] the target is T1, lambda terminase holoenzyme ring (TerL•TerS2)5. Nature of the series: cryoEM 2D class averages (conformational change). It counts as binding. Conditions: 1 mM ATPγS; no DNA mentioned; no 3D reconstruction.
The target in series [7] is B2. The series is described as follows: native MS; charge detection mass spectrometry (CDMS) of the terminase protomer, 200 mM ammonium acetate. Conditions: both partners purified.
Series [8] concerns the molecule itself. Nature of the series: cryo-EM 2D class averages; purified terminase ring at 0.5 mg/ml with 1 mM ATPγS; no 3D reconstruction.

For `Nc1ncnc2c1ncn2[C@@H]1O[C@H](COP(=O)(O)OP(=O)(O)OP(=O)(O)O)[C@@H](O)[C@H]1O` [ATP], the Km in series [1] is 0.495 ± 0.07 µM.
With “bacteriophage λ terminase protomer (TerL•TerS2) (from UniProt P03708 1-641; P03707 1-181) (complex)”, the stoichiometry N in series [2] is 5; in series [3] it was 5; in series [4], 5 protomers; in series [5], 5.1 and 4.2 and 4.4.
With `Nc1ncnc2c1ncn2[C@@H]1O[C@H](COP(=O)(O)OP(=O)(O)OP(O)(O)=S)[C@@H](O)[C@H]1O` [ATPγS], the “cryoEM 2D class averages (conformational change)” value in series [6] is given as “we imaged the λ terminase ring bound to ATP-γS, a poorly hydrolyzed ATP analog”.

B1: bacteriophage λ terminase small subunit (TerS) (natural protein, UniProt P03707 1-181, looked up)
chain: MEVNKKQLADIFGASIRTIQNWQEQGMPVLRGGGKGNEVLYDSAAVIKWYAERDAEIENEKLRREVEELRQASEADLQPGTIEYERHRLTRAQADAQELKNARDSAEVVETAFCTFVLSRIAGEIASILDGLPLSVQRRFPELENRHVDFLKRDIIKAMNKAAALDELIPGLLSEYIEQSG
notes: small DNA recognition terminase subunit TerS of bacteriophage lambda; Never tested as an isolated subunit, only as part of the protomer or ring; also called small terminase
Turning to B1, in series [7], the binding result is “binds”.
Take B2: the binding result in series [8] is listed as “binds”.
